Measured values reported in the supplement of paper PMC10567573.
± gives the standard deviation.

Assay: protein stability index of a GFP-peptide fusion (GPS, HEK-293T) (PSI 1-6); higher = more stable
[1] = treatment: DMSO, c terminus: a fixed tail appended
[2] = treatment: MLN4924 1 uM, 8 h, c terminus: a fixed tail appended
[3] = treatment: DMSO, c terminus: native
[4] = treatment: MLN4924 1 uM, 8 h, c terminus: native
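Further: 24-mer peptide tiles fused after GFP, lentivirally expressed, FACS-sorted into six equal bins by GFP/DsRed ratio, decoded by Illumina sequencing, PSI is the read-weighted mean bin number.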

Sequence	protein stability index [1]	protein stability index [2]	protein stability index [3]	protein stability index [4]
KPLDLSDSTLSYTETEATNSLITA [SMAD6]	4.82 ± 0.2	4.92 ± 0.059	–	–
ERQLKVMASDHREALLDRESENAS [LRRC45]	5.41 ± 0.3	5.33 ± 0.18	–	–
EKQELHRNMLGLLGNVAEVKELRP [ZER1]	3.74 ± 0.16	4.04 ± 0.31	–	–
VTLMVAKWTGDFFNKGIYDIHVGL [CLCN6]	2.46 ± 0.4	3.58 ± 0.26	–	–
AGQKRKHSEGRVEVYYDGQWGTVC [LOXL2]	2.87 ± 1.3	3.35 ± 1	–	–
SPLEEKHDQCKCENLIMFQNLANE [MATN2]	4.365 ± 0.004	4.05 ± 0.69	–	–
DDSKFPIEDTPLVPVSFIFIFTFV [PCDHGA10]	3.32 ± 0.36	2.09 ± 0.062	–	–
FKLKPLSNKTATDDTGGKDPRNV [PLD5]	–	–	4.78 ± 0.17	4.89 ± 0.19
VLVHCEAGISRSPTICMAYLMKTK [DUSP5]	2.77 ± 0.61	2.39 ± 0.41	–	–
KLLHIYYQNSIDDRLLVERIFAQY [PDS5B]	2.68 ± 0.63	3.39 ± 0.59	–	–
VKARKQEIIKVTEQLIEAINNGDF [CAMK2D]	2.59 ± 0.28	2.93 ± 0.3	–	–
LIYVVIDLPINVFKLLAGRWPFDH [EDNRA]	2.27 ± 1	3.04 ± 0.23	–	–
RLFTQLKFGVVQTSVEECSQKGCL [CLCN6]	2.29 ± 0.46	2.61 ± 0.27	–	–
TVKFANNPSQKTGQALLTHLYQSS [ELAVL3]	3.01 ± 0.22	3.03 ± 0.38	–	–
GRLGRWLRSTRFSGSLDRLRETRV [PCDHGC5]	3.34 ± 0.18	3.3 ± 0.36	–	–
EGASSDNGCEVKNRKSILSRHLNS [PHTF1]	4.74 ± 0.46	4.68 ± 0.16	–	–
KEQEETIQRIDENVLGAQLDVEAA [STX5]	5.52 ± 0.22	5.4 ± 0.34	–	–
GHISLRRENSSDSPKELKRRNSSS [DLC1]	5.03 ± 0.27	5.23 ± 0.15	–	–
AKNYIWALSEILRIGKRPDLLTFV [NEUROD6]	2.53 ± 0.52	2.69 ± 0.92	–	–
YVKVFEHFLENLDKSRKGELLKKS [PRIM1]	1.96 ± 0.31	2.09 ± 0.48	–	–
KPGNNEGSGAPSPLSKSSPATTVT [SNAP91]	5.21 ± 0.11	5.1 ± 0.13	–	–
QEQRLGIRISMSHEEEPLGTAGPL [GMPPB]	4.82 ± 0.21	4.79 ± 0.34	–	–
DGDIPNIPAEENASTSTPSSTLVR [FAM189A2]	5.47 ± 0.2	5.55 ± 0.15	–	–

Sequence	protein stability index [1]	protein stability index [2]	protein stability index [3]	protein stability index [4]
LALRQGVEADINGLRRVLDELTLA [KRT15]	2.51 ± 0.26	2.65 ± 0.4	–	–
SPGGTLMDLSERQEVSSVRSLSST [DLC1]	4.61 ± 0.24	4.85 ± 0.2	–	–
LGIGMDSCVIPLRHGGLSLVQTTD [SEPHS2]	2.8 ± 0.33	2.98 ± 0.4	–	–
GGYFKARLKFPIDYPYSPPAFRFL [CDC34]	2.82 ± 0.33	2.58 ± 0.51	–	–
LRVSPDGTAFCSGSWDHTLRVWA [GNB5]	–	–	2.95 ± 0.33	2.77 ± 0.77
APLQADLTEQVWKVQDALQNQSDS [SCARA5]	5.26 ± 0.24	5.24 ± 0.28	–	–
SSSGDLADLENEDIFPELDDILYH [DLC1]	4.77 ± 0.24	4.76 ± 0.2	–	–
PGNKGRGQRGNTESKTDGDDTETV [TCF25]	5.57 ± 0.3	5.54 ± 0.3	–	–
DEELGGSSRVPVGGGPEATLSISD [ZBTB22]	5.37 ± 0.18	5.42 ± 0.06	–	–
IFGASSVDFSLSGRLLFAGYNDYT [GNB5]	2.6 ± 0.63	2.12 ± 0.49	–	–
RAYGFRGPGPQLRRGWRPSSREDS [CHGA]	3.9 ± 0.4	4.07 ± 0.47	–	–
GGRALVVRKVPPGYSIKVFDFERS [SMAD6]	2.52 ± 0.33	2.37 ± 0.51	–	–
LEEYITDEQKEEEEEEGEEEELIR [FAM9B]	5.37 ± 0.15	5.59 ± 0.33	–	–
GGGVATSPMLIVFHGKYSTINPLW [GLT8D2]	3.02 ± 1.3	2.36 ± 0.56	–	–
TSPWSECTKTCGVGVRMRDVKCYQ [ADAMTSL2]	2.81 ± 0.21	2.44 ± 0.38	–	–
NKALWENNKLKLQQKLVIDTVTEV [CBY2]	3.16 ± 0.35	3.29 ± 0.25	–	–
FVQVKGNFARLQTCISELRMLQRE [M1AP]	2.47 ± 0.75	2.11 ± 0.22	–	–
SLSFEDFLDLLSVFSDTATPDIKS [CIB1]	2.26 ± 0.35	2.29 ± 0.33	–	–
LSLASLLVYVAAFSIGLGPMPWLV [SLC2A12]	2.93 ± 0.37	2.79 ± 0.68	–	–
DVPTIQEKVNEGKYRSYEEFKADA [ZMYND11]	5.21 ± 0.3	5.26 ± 0.15	–	–
YVKAKKSIDKDEEFAGSSPQSSKS [FAN1]	3.57 ± 0.67	4.16 ± 0.65	–	–
EQLSGAGYRVSAALEEADKMFLRT [EID1]	3.72 ± 0.22	4.1 ± 0.43	–	–
AEGTTGLAPAGQTSEESRPRLSQL [TNXB]	5.66 ± 0.21	5.36 ± 0.25	–	–

Sequence	protein stability index [1]	protein stability index [2]	protein stability index [3]	protein stability index [4]
IGPPSAAAIFKIYLSCLEELMKCQ [TRIP13]	2.16 ± 0.31	2.21 ± 0.34	–	–
LNKELNENQLVRKQDVLGPSTTPP [SASS6]	5 ± 0.2	5.1 ± 0.071	–	–
MAAADAEAVPARGEPQQDCCVKTE [EHMT1]	5.63 ± 0.21	5.53 ± 0.11	–	–
DYRPMNHEAFKDELKTFRLKTRSW [CDC25B]	3.46 ± 0.27	3.41 ± 0.25	–	–
AAASGAAGGGGGGAGAGAPGGGRL [INTS3]	4.98 ± 0.2	4.91 ± 0.26	–	–
VTTHQPTNLVLPSNGSMHNYCPQQ [EDNRA]	3.75 ± 0.2	3.77 ± 0.056	–	–
KQPPLSTVPADGYILELDDGNGGQ [TRIM9]	5.07 ± 0.12	5.07 ± 0.2	–	–
VISPVIQLQPTFTPMRVALAGTFH [NSDHL]	2.42 ± 0.54	2.1 ± 0.11	–	–
SHWDLNHTHPSACQGQRLFEKLLQ [PLD5]	2.56 ± 0.43	2.54 ± 0.3	–	–
HPEVKCVGSVALTALVTVSSEEFE [C8orf76]	3.27 ± 0.19	3.31 ± 0.52	–	–
RHDSETEDMLWDDLLHGPECRSSV [PHTF1]	4.68 ± 0.24	4.7 ± 0.2	–	–
NPALEGLTQPLQGGTPHCEPCQLP [DNAAF3]	4.89 ± 0.36	4.97 ± 0.24	–	–
CLTQSTAAPAVRASSSPVTLRQKT [SLA]	4.02 ± 0.35	4.35 ± 0.052	–	–
VSVNLEAFSQAISAIQALRSSVSR [MED27]	3.17 ± 0.15	3.24 ± 0.28	–	–
AAIVVNGHGMTPLKVAAESCKADV [FEM1B]	3.38 ± 0.39	3.3 ± 0.35	–	–
RRRFREKKKAIQEEEERDQALQAK [YJU2B]	5.26 ± 0.36	5.33 ± 0.23	–	–
YKPPALKKSNSPGTASSGSSRLPQ [ZC2HC1A]	4.46 ± 0.079	4.51 ± 0.2	–	–
GSENRNHRLLNMARNNNDPGRLTE [RNF180]	4.08 ± 0.22	4.26 ± 0.24	–	–
TDAKKREALYAQDPSTGCYMYYFQ [KMT5A]	2.48 ± 0.22	2.68 ± 0.35	–	–
KARKTYERLVAQFPSSGRFWKLYI [CSTF3]	2.57 ± 0.39	2.44 ± 0.35	–	–
SGNGDFGDWSAFNQAPSGPVASSG [CLINT1]	4.37 ± 0.13	4.38 ± 0.11	–	–
NPEEYNLDEPNAESDYTYSSSYEQ [SRPK2]	5.52 ± 0.19	5.46 ± 0.25	–	–
GLDFLHANCIVHRDLKPENILVTS [CDK4]	2.49 ± 0.23	2.61 ± 0.4	–	–

Sequence	protein stability index [1]	protein stability index [2]	protein stability index [3]	protein stability index [4]
RNMLGLLGNVAEVKELRPQLMTSQ [ZER1]	3.09 ± 0.3	3.49 ± 0.69	–	–
NSSTWGSLKQALKGLSVEFALLAD [SNX8]	2.39 ± 0.55	2.45 ± 0.36	–	–
LDELLGRGMATKLLARPGTGEHRE [FBF1]	3.75 ± 0.17	4.09 ± 0.29	–	–
NAKLAADDFRTKYQTEQSLRQLVE [KRT33B]	3.4 ± 0.26	3.48 ± 0.14	–	–
LVARFLEQSSCTMTPDIHELVENI [FAM189A2]	2.54 ± 0.55	2.37 ± 0.4	–	–
RGSDLKVLEVTEESIDFDQGELAD [FBXO33]	5.42 ± 0.14	5.519 ± 0.053	–	–
VPSSGYGAVTASKHSNSPPLVTPP [SMTNL2]	4.29 ± 0.14	4.16 ± 0.15	–	–
MLASVESVPFSFDPNTAAGWLSVS [TRIM35]	2.31 ± 0.22	2.33 ± 0.28	–	–
QDEEMLELPAPAEVAAKNQSLEGD [MLH1]	5.37 ± 0.59	5.66 ± 0.17	–	–
VVSSEGRQSRRQSVSRFFADSGAD [FBF1]	4.25 ± 0.11	4.44 ± 0.31	–	–
QNKAQRQKDLIMKVENLTLKNHFQ [TAF7L]	3.08 ± 0.28	3.1 ± 0.13	–	–
ISEAQLKDRETSKVIYDFIEKTGG [WASL]	3.42 ± 0.13	3.67 ± 0.15	–	–
QKRYHCKECGKVFSQSAGLIQHQR [ZSCAN9]	3.3 ± 0.35	3.63 ± 0.63	–	–
LQSCGDLHTFTPAGRPRAERRPRR [FAM189A2]	4.95 ± 0.27	5.07 ± 0.23	–	–
QFLGFSWIFVNLTVRFCILGKESF [HACD3]	3.49 ± 0.52	3.25 ± 0.16	–	–
KHSNSPPLVTPPQSPVSPQPPAIT [SMTNL2]	4.82 ± 0.15	4.92 ± 0.15	–	–
LETEQGKPFVSVFRHLRLQYIISD [GMCL1]	2.21 ± 0.56	2.05 ± 0.33	–	–
ATYRRLLEGEDAHLSSQQASGQSY [KRT16]	4.46 ± 0.22	4.4 ± 0.29	–	–
RVYHGWLFEGLGRDKAEELLQLPD [SLA]	3.01 ± 0.53	2.82 ± 0.57	–	–
HHLGSGSGAGGTGGPAGQAGRGGA [MYOZ1]	4.9 ± 0.35	5.01 ± 0.33	–	–
